Residue numbers refer to the chain shown, from its start. Values joined by “and” are separate entries in the source; they are usually repeats but may differ in a detail not shown here. Equal entries are not always repeated.
B1: ET150-5-TCB (bispecific antibody, human IgG1, lambda, L234A L235A)
light 1: QSVLTQPPSASGTPGQRVTISCSGSRSNVGGNYVFWYQQVPGATPKLLIYRSNQRPSGVPDRFAGSKSGSSASLAISGLRSEDEADYYCATWDDSLSGFVFGTGTKVTVLGQPKAAPSVTLFPPSSKKLQANKATLVCLISDFYPGAVTVAWKADSSPVKAGVETTTPSKQSNNKYAASSYLSLTPEQWKSHRSYSCQVTHEGSTVEKTVAPTECS
light 2: EVQLLESGGGLVQPGGSLRLSCAASGFTFSTYAMNWVRQAPGKGLEWVSRIRSKYNNYATYYADSVKGRFTISRDDSKNTLYLQMNSLRAEDTAVYYCVRHGNFGNSYVSWFAYWGQGTLVTVSSASVAAPSVFIFPPSDEQLKSGTASVVCLLNNFYPREAKVQWKVDNALQSGNSQESVTEQDSKDSTYSLSSTLTLSKADYEKHKVYACEVTHQGLSSPVTKSFNRGEC
heavy 1: EVQLVESGGGLVKPGGSLRLSCAASGFTFSDYYMSWIRQAPGKGLEWVSYISSSGSTIYYADSVKGRFTISRDNAKNSLYLQMNSLRAEDTAVYYCARGYGKAYDQWGQGTLVTVSSASTKGPSVFPLAPSSKSTSGGTAALGCLVEDYFPEPVTVSWNSGALTSGVHTFPAVLQSSGLYSLSSVVTVPSSSLGTQTYICNVNHKPSNTKVDEKVEPKSCDKTHTCPPCPAPEAAGGPSVFLFPPKPKDTLMISRTPEVTCVVVDVSHEDPEVKFNWYVDGVEVHNAKTKPREEQYNSTYRVVSVLTVLHQDWLNGKEYKCKVSNKALGAPIEKTISKAKGQPREPQVCTLPPSRDELTKNQVSLSCAVKGFYPSDIAVEWESNGQPENNYKTTPPVLDSDGSFFLVSKLTVDKSRWQQGNVFSCSVMHEALHNHYTQKSLSLSPGK
heavy 2: not shown
B2: 5F11_P1AE5741 (antibody, V domains shown)
VH: EVQLVESGGGVVQPGRSLRLSCAASGFSFSNYGMAWVRQAPGKGLEWVASISTGGGNTYYRDSVKGRFTISRDNAKNTLYLQMNSLRAEDTAVYYCTRHDRGGLYWGQGTMVTVSS
VL: DIVMTQSPLSLPVTPGEPASISCRSSKSLLHSNGITYVYWYLQKPGQSPQLLIYRMSNRASGVPDRFSGSGSGTDFTLKISRVEAEDVGVYHCGQLLENPYTFGQGTKLEIK
notes: Humanized 5F11 IgG; PGLALA Fc implied by the CAR-J assay; also called 5F11_VH1b + 5F11_VL2a
B3: P1AE5744 (antibody, V domains shown)
VH: B2 VH with E1Q, R61A, A75S
VL: B2 VL with L51V, R59L
notes: Humanized 5F11 IgG; PGLALA Fc implied by the CAR-J assay; also called 5F11_VH1c + 5F11_VL1a
B4: 5F11_P1AE5745 (antibody, V domains shown)
VH: B2 VH with E1Q, R61A, A75S
VL: B2 VL with Q47K, L51V, R59L
notes: Humanized 5F11 IgG; PGLALA Fc implied by the CAR-J assay; also called 5F11_VH1c + 5F11_VL1b
B5: P1AE5763 (antibody, V domains shown)
VH: B2 VH with V11L, R16G, R61A
VL: DIVMTQSPDSLAVSLGERATINCKSSKSLLHSNGITYVYWYQQKPGQPPKLLIYRMSNLASGVPDRFSGSGSGTDFTLTISSLQAEDVAVYHCGQLLENPYTFGQGTKLEIK
notes: Humanized 5F11 IgG; PGLALA Fc implied by the CAR-J assay; also called 5F11_VH2d + 5F11_VL2b
B6: 5E11_P1AE5723 (antibody, V domains shown)
VH: EVQLLESGGGLVQPGGSLRLSCAASGFTFSKYAMAWVRQAPGKGLEWVASISTGGVNTYYADSVKGRFTISRDNSKNTLYLQMNSLRAEDTAVYYCATHTGDYFDYWGQGTMVTVSS
VL: EIVLTQSPGTLSLSPGERATLSCRASQSVSISGINLMNWYQQKPGQQPKLLIYHASILASGIPDRFSGSGSGTDFTLTISRLEPEDFAVYYCQQTRESPLTFGQGTRLEIK
notes: Humanized 5E11 IgG; PGLALA Fc implied by the CAR-J assay; also called 5E11_VH1c + 5E11_VL2b
B7: P1AE5730 (antibody, V domains shown)
VH: B6 VH with V2L, S75A
VL: DIQMTQSPSSLSASVGDRVTITCRASQSVSISGINLMNWYQQKPGKQPKLLIYHASILASGVPSRFSGSGSGTDFTLTISSLQPEDFATYYCQQTRESPLTFGQGTRLEIK
notes: Humanized 5E11 IgG; PGLALA Fc implied by the CAR-J assay; also called 5E11_VH1d + 5E11_VL3a
B8: P1AE5724 (antibody, V domains shown)
VH: B6 VH
VL: B7 VL
notes: Humanized 5E11 IgG; PGLALA Fc implied by the CAR-J assay; also called 5E11_VH1c + 5E11_VL3a
B9: P1AE5712 (antibody, V domains shown)
VH: B6 VH with A61R, G66A
VL: B7 VL
notes: Humanized 5E11 IgG; PGLALA Fc implied by the CAR-J assay; also called 5E11_VH1a + 5E11_VL3a
B10: P1AE5725 (antibody, V domains shown)
VH: B6 VH
VL: B7 VL with K46Q
notes: Humanized 5E11 IgG; PGLALA Fc implied by the CAR-J assay; also called 5E11_VH1c + 5E11_VL3b
B11: P1AE5718 (antibody, V domains shown)
VH: B6 VH with V2L, A61R, G66A, S75A
VL: B7 VL
notes: Humanized 5E11 IgG; PGLALA Fc implied by the CAR-J assay; also called 5E11_VH1b + 5E11_VL3a
B12: P1AE5719 (antibody, V domains shown)
VH: B6 VH with V2L, A61R, G66A, S75A
VL: B7 VL with K46Q
notes: Humanized 5E11 IgG; PGLALA Fc implied by the CAR-J assay; also called 5E11_VH1b + 5E11_VL3b
B13: P1AE5731 (antibody, V domains shown)
VH: B6 VH with V2L, S75A
VL: B7 VL with K46Q
notes: Humanized 5E11 IgG; PGLALA Fc implied by the CAR-J assay; also called 5E11_VH1d + 5E11_VL3b
B14: P1AE5726 (antibody, V domains shown)
VH: B6 VH with V2L, S75A
VL: DIVMTQSPDSLAVSLGERATINCRASQSVSISGINLMNWYQQKPGQQPKLLIYHASILASGVPDRFSGSGSGTDFTLTISSLQAEDVAVYYCQQTRESPLTFGQGTRLEIK
notes: Humanized 5E11 IgG; PGLALA Fc implied by the CAR-J assay; also called 5E11_VH1d + 5E11_VL1a
B15: P1AE5720 (antibody, V domains shown)
VH: B6 VH
VL: B14 VL
notes: Humanized 5E11 IgG; PGLALA Fc implied by the CAR-J assay; also called 5E11_VH1c + 5E11_VL1a
B16: P1AE5727 (antibody, V domains shown)
VH: B6 VH with V2L, S75A
VL: B14 VL with R24K, A25S
notes: Humanized 5E11 IgG; PGLALA Fc implied by the CAR-J assay; also called 5E11_VH1d + 5E11_VL1c
B17: P1AE5721 (antibody, V domains shown)
VH: B6 VH
VL: B14 VL with R24K, A25S
notes: Humanized 5E11 IgG; PGLALA Fc implied by the CAR-J assay; also called 5E11_VH1c + 5E11_VL1c
B18: 5E11_P1AE5728 (antibody, V domains shown)
VH: B6 VH with V2L, S75A
VL: B6 VL with K49R
notes: Humanized 5E11 IgG; PGLALA Fc implied by the CAR-J assay; also called 5E11_VH1d + 5E11_VL2a

Target: T1, human GPRC5D (human, UniProt Q9NZD1 1-345)
T1 sequence (Q9NZD1 whole entry): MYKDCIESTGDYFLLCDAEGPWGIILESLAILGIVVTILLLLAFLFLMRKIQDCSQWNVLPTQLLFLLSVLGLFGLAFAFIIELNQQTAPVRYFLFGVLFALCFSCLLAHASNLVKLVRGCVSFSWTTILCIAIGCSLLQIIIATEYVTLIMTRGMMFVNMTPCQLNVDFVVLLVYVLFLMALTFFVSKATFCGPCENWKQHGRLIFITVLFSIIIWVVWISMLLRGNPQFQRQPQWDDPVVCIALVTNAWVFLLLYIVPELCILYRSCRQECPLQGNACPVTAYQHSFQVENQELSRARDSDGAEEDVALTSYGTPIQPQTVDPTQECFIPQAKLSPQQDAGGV
Assay: cell-based or functional assay

Binder | EC50 of anti-GPRC5D-TCB mediated killing, AMO-1 [nM] | EC50 of anti-GPRC5D-TCB mediated killing, L363 [nM] | EC50 of anti-GPRC5D-TCB mediated killing, NCI-H929 [nM] | EC50 of anti-GPRC5D-TCB mediated killing, RPMI-8226 [nM]
B1 | 0.0835 | 0.768 | 0.833 | 0.797

Target: T1, human GPRC5D
Assay: cell-based or functional assay
Remark: another data set of the same source

CAR-J2 EC50 [ng/mL] (PGLALA-CAR-J activation, L363 target cells) | Binder
1.4 | B2
3.63 | B3
1.62 | B4
5.47 | B5

Target: T1, human GPRC5D
Assay: cell ELISA, CHO hu GPRC5D (EC/IC50 rel)
Experimental: Stable transfected CHO clones expressing either human GPRCSD or cynomolgus GPRCSD or murine GPRCSD or human GPRCSA were used to analyze the binding of potential lead candidate antibodies as IgGs. In detail, 10⁴ cells (viability≥98%) were seeded into 384 well-microtiter plates (BD Poly D-Lysin, #356662, volume: 25 μl/well) using fresh culture medium. After overnight incubation at 37° C., 25 μl/well dilutions of antibodies were added (15×1:3 dilutions in 1×PBS, assay conc. starts at 30 μg/ml) to the cells for 2 hours at 4° C. After one washing step using 90 μl/well PBST (10×PBS, Roche, #11666789001+0.1% Tween 20), cells were subsequently fixed by the addition of 50 μl/well 0.05% glutaraldehyde (Sigma Cat. No: G5882 in 1×PBS) for 10 min at room temperature (RT). After three additional washing steps using 90 μl/well PBST, secondary antibodies were added for detection: for human antibodies goat anti-human Ig a chain antibody HRP conjugate (Millipore #AP502P) diluted 1:2000 in blocking buffer (1×PBS (Roche #11666789001)+2% BSA (Bovine Serum Albumin Fraction V, fatty acid free, Roche, #10735086001)+0.05% Tween 20) was used (25 μl/well). […] After incubation for 1 h at RT and three additional washing steps using 90 μl/well PBST, 25 μl/well TMB substrate was added (Roche order no. 11835033001) for 10 min and color development to final ODs was determined by measurement at 370 nm/492 nm.
For the characterization of the humanization variants of the VH and VL domains of the GPRC5D binders the ELISA protocol as described above was used (see Example 7). The data are summarized in the table 10 for the humanization variants of 5E11 and in table 11 for the humanization variants of 5F11.

EC50 | Binder
0.006 µg/mL and 0.04 nM | B6
0.008 µg/mL and 0.05 nM | B7
0.0053 µg/mL and 0.04 nM | B8
0.0131 µg/mL and 0.09 nM | B9
0.0051 µg/mL and 0.03 nM | B10
0.0121 µg/mL and 0.08 nM | B11
0.0166 µg/mL and 0.11 nM | B12
0.0052 µg/mL and 0.03 nM | B13
0.0076 µg/mL and 0.05 nM | B14
0.0217 µg/mL and 0.14 nM | B15
0.0087 µg/mL and 0.06 nM | B16
0.0183 µg/mL and 0.12 nM | B17
0.0079 µg/mL and 0.05 nM | B18
0.0067 µg/mL and 0.04 nM | B2
0.0086 µg/mL and 0.06 nM | B3
0.0097 µg/mL and 0.06 nM | B4
0.006 µg/mL and 0.04 nM | B5

Target: T1, human GPRC5D
Assay: cell-based or functional assay
Remark: another data set of the same source

EC50 values of CAR-J activation [ng/mL] | Binder
3.7 | B6
3.5 | B7
105 | B11
5.6 | B18
1.4 | B2
3.63 | B3
1.62 | B4
5.47 | B5

Target: T1, human GPRC5D
Assay: cell-based or functional assay
Remark: another data set of the same source

CAR-J2 EC50 [ng/mL] (PGLALA-CAR-J activation, L363 target cells) | Binder
3.7 | B6
3.5 | B7
3.6 | B8
16.1 | B9
10.9 | B10
105 | B11
2.8 | B12
2.3 | B13
37.8 | B14
6.3 | B15
6.3 | B16
25 | B17
5.6 | B18
